From patent US20260242478A1 (published 2026) come the findings set out here.

Where no end group is shown, it is not given here.

In assay [1] the target is T1, Anti-CD28 Fab (SEQ ID NOs: 696, 697).
T1 construct: In the phage ELISA the Fab was biotinylated and captured on neutravidin coated plates
Kind of assay: phage ELISA on captured anti-CD28 Fab; competitor: CD28 antigen pre-incubated on the Fab. A general note: An ELISA detects its analyte on a solid surface through an enzyme-linked reagent.
T1 sequence (VH, as listed by the source, chain 1 of 2): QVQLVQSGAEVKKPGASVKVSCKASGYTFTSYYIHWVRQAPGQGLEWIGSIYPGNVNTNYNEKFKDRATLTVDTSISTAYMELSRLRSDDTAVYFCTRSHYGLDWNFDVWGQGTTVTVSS
T1 sequence (VL, as listed by the source, chain 2 of 2): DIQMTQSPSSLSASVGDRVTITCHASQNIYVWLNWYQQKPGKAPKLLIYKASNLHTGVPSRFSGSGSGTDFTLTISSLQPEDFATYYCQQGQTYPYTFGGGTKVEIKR
Method: (§1) After panning, phage infected bacteria were plated out and colonies picked into 96 well blocks. Clonal phage was then amplified and separated from bacterial cells via centrifugation.
(§2) Clonal phage were harvested as crude supematants and screened via standard ELISAs. […] Prior to the addition of clonal phage, wells were incubated with blocking buffer and CD28 antigen or blocking buffer alone. Without washing or aspirating, clonal phage supematants were then added to the wells and incubated for a short time. Wells were then washed followed by detection of bound phage using a horse radish conjugated anti-M13 antibody. Clonal phage of interest were then sent for sequence analysis.

The target is the same in assay [2]. The assay can be described thus: phage ELISA; clonal phage supernatant on biotinylated anti-CD28 Fab captured on neutravidin, anti-M13 HRP detection.
Target sequence in this assay (VH, as listed by the source, chain 1 of 2): as the sequence (VH, as listed by the source, chain 1 of 2) above
Target sequence in this assay (VL, as listed by the source, chain 2 of 2): as the sequence (VL, as listed by the source, chain 2 of 2) above
Method: as §1, §2
The target in assay [3] is T2, Anti-CD28 Fab (SEQ ID NOs: 696, 697).
T2 construct: Biotinylated and captured on neutravidin coated plates in the phage ELISA
Kind of assay: phage ELISA; captured anti-CD28 Fab pre-incubated with CD28 antigen as competitor, anti-M13 HRP.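 Further: crude clonal phage supernatants added without washing after CD28 pre-incubation, bound phage detected with HRP anti-M13 antibody, reference wells got blocking buffer lacking CD28.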
T2 sequence (VH, as listed by the source, chain 1 of 2): as the sequence (VH, as listed by the source, chain 1 of 2) above
T2 sequence (VL, as listed by the source, chain 2 of 2): as the sequence (VL, as listed by the source, chain 2 of 2) above

Assay [4] shares this target. The assay can be described thus: phage ELISA; biotinylated anti-CD28 Fab on neutravidin plate, clonal phage supernatant, anti-M13 HRP.
Target sequence in this assay (VH, as listed by the source, chain 1 of 2): as the sequence (VH, as listed by the source, chain 1 of 2) above
Target sequence in this assay (VL, as listed by the source, chain 2 of 2): as the sequence (VL, as listed by the source, chain 2 of 2) above
Assay [5] deals with T3, Anti-CD28 Fab (SEQ ID NOs: 696, 697).
T3 construct: In the phage ELISA the Fab was biotinylated and captured on neutravidin coated plates
Kind of assay: phage binding ELISA; Fab-coated wells pre-incubated with CD28 antigen as competitor, anti-M13 HRP detection.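 Further: crude clonal phage supernatants from panned colonies added to wells after blocking buffer plus CD28 treatment, bound phage measured after a brief incubation and washing.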
T3 sequence (VH, as listed by the source, chain 1 of 2): as the sequence (VH, as listed by the source, chain 1 of 2) above
T3 sequence (VL, as listed by the source, chain 2 of 2): as the sequence (VL, as listed by the source, chain 2 of 2) above
Method: as §1, §2

Assay [6] has the same target. Kind of assay: phage binding ELISA; biotinylated anti-CD28 Fab on neutravidin plate, clonal phage supernatant, anti-M13 HRP detection.
Target sequence in this assay (VH, as listed by the source, chain 1 of 2): as the sequence (VH, as listed by the source, chain 1 of 2) above
Target sequence in this assay (VL, as listed by the source, chain 2 of 2): as the sequence (VL, as listed by the source, chain 2 of 2) above

With YCAGHAPEYMSKCL [Phage-939], the “Anti-CD28 Fab signal in the presence of CD28 (phage binding ELISA)” value in assay [1] was 0.05. Besides, the “Anti-CD28 Fab signal (phage binding ELISA)” value in assay [2] worked out at 1.63.

YCEGHAPQYIMKCL [Phage-951]: the “Phage binding ELISA, Anti-CD28 Fab signal in the presence of CD28” value in assay [3] turned out to be 0.06. The “Phage binding ELISA, Anti-CD28 Fab signal” value in assay [4] was 1.62.

B1: Phage-925 (Peptide-87 library clone, SEQ ID NO: 1241) (peptide)
peptide: YCAGHAAEYMTKCL
modifications: cysteine pairing not given here; also: displayed fused to phage pIII protein, fusion end and linker not given here
notes: Tested as clonal phage supernatant; not shown: fused to the pIII filament protein of the bacteriophage
On to B1, for which, in assay [5], the “Anti-CD28 Fab signal in the presence of CD28 (phage binding ELISA)” value is 0.07. Further, in assay [6], the “Anti-CD28 Fab signal (phage binding ELISA)” value was 1.65.

For the molecule YCEGHLEEYMAKCL [Phage-954], in assay [3], the “Phage binding ELISA, Anti-CD28 Fab signal in the presence of CD28” value is 0.07. Moreover, the “Phage binding ELISA, Anti-CD28 Fab signal” value in assay [4] came to 1.62.

For the molecule YCEGHLEQYMQKCL [Phage-942], the “Anti-CD28 Fab signal in the presence of CD28 (phage binding ELISA)” value in assay [1] was 0.06. Besides, the “Anti-CD28 Fab signal (phage binding ELISA)” value in assay [2] stood at 1.63.

B2: Phage-930 (Peptide-87 library clone, SEQ ID NO: 1246) (peptide)
peptide: YCEGHIAEYMQKCL
modifications: cysteine pairing not given here; also: displayed fused to phage pIII protein, fusion end and linker not given here
notes: as for B1
In the case of B2, the “Anti-CD28 Fab signal in the presence of CD28 (phage binding ELISA)” value in assay [5] was 0.13. The “Anti-CD28 Fab signal (phage binding ELISA)” value in assay [6] turned out to be 1.64.

As for YCDGHSEAFMQKCL [Phage-945], the “Phage binding ELISA, Anti-CD28 Fab signal in the presence of CD28” value in assay [3] was determined as 0.07. Further, the “Phage binding ELISA, Anti-CD28 Fab signal” value in assay [4] was 1.63.

For YCAGHLAIYMSKCL [Phage-947], the “Phage binding ELISA, Anti-CD28 Fab signal in the presence of CD28” value in assay [3] was found to be 0.08. In addition, the “Phage binding ELISA, Anti-CD28 Fab signal” value in assay [4] amounted to 1.63.

B3: Phage-926 (Peptide-87 library clone, SEQ ID NO: 1242) (peptide)
peptide: YCDGHSVEYMEKCL
modifications: cysteine pairing not given here; also: displayed fused to phage pIII protein, fusion end and linker not given here
notes: as for B1
Regarding B3, the “Anti-CD28 Fab signal in the presence of CD28 (phage binding ELISA)” value in assay [5] worked out at 0.09. The “Anti-CD28 Fab signal (phage binding ELISA)” value in assay [6] came to 1.65.

B4: Phage-923 (Peptide-87 library clone, SEQ ID NO: 1239) (peptide)
peptide: YCEGHLAVYMEKCL
modifications: cysteine pairing not given here; also: displayed fused to phage pIII protein, fusion end and linker not given here
notes: as for B1
On to B4, for which, in assay [5], the “Anti-CD28 Fab signal in the presence of CD28 (phage binding ELISA)” value was 0.12. Further, in assay [6], the “Anti-CD28 Fab signal (phage binding ELISA)” value was 1.65.

Turning to YCAGHVAEYMAKCL [Phage-933], the “Anti-CD28 Fab signal in the presence of CD28 (phage binding ELISA)” value in assay [1] was found to be 0.06. Further, in assay [2], the “Anti-CD28 Fab signal (phage binding ELISA)” value was found to be 1.64.

For YCDGHATEYMQKCL [Phage-934], in assay [1], the “Anti-CD28 Fab signal in the presence of CD28 (phage binding ELISA)” value amounted to 0.1. Also, the “Anti-CD28 Fab signal (phage binding ELISA)” value in assay [2] was 1.64.

Consider YCDGHLLEYKAKCL [Phage-953], for which the “Phage binding ELISA, Anti-CD28 Fab signal in the presence of CD28” value in assay [3] was 0.07. Also, the “Phage binding ELISA, Anti-CD28 Fab signal” value in assay [4] is 1.62.

Regarding YCEGHSWVYMAKCL [Phage-943], the “Anti-CD28 Fab signal in the presence of CD28 (phage binding ELISA)” value in assay [1] was 0.07. Moreover, the “Anti-CD28 Fab signal (phage binding ELISA)” value in assay [2] amounted to 1.63.

As to YCDGHLDVYRAKCL [Phage-941], the “Anti-CD28 Fab signal in the presence of CD28 (phage binding ELISA)” value in assay [1] is 0.09. Moreover, in assay [2], the “Anti-CD28 Fab signal (phage binding ELISA)” value was determined as 1.63.

In the case of YCAGHLPEYMGKCL [Phage-946], the “Phage binding ELISA, Anti-CD28 Fab signal in the presence of CD28” value in assay [3] is 0.07. Also, the “Phage binding ELISA, Anti-CD28 Fab signal” value in assay [4] came out at 1.63.

B5: Phage-924 (Peptide-87 library clone, SEQ ID NO: 1240) (peptide)
peptide: YCEGHSLMYMWKCL
modifications: cysteine pairing not given here; also: displayed fused to phage pIII protein, fusion end and linker not given here
notes: as for B1
On to B5, for which, in assay [5], the “Anti-CD28 Fab signal in the presence of CD28 (phage binding ELISA)” value turned out to be 0.08. The “Anti-CD28 Fab signal (phage binding ELISA)” value in assay [6] stood at 1.65.

B6: Phage-922 (Peptide-87 library clone, SEQ ID NO: 1238) (peptide)
peptide: YCDGHSLLYLSKCL
modifications: cysteine pairing not given here; also: fused to phage pIII
notes: as for B1
As for B6, in assay [5], the “Anti-CD28 Fab signal in the presence of CD28 (phage binding ELISA)” value is 0.07. In assay [6], the “Anti-CD28 Fab signal (phage binding ELISA)” value was 1.65.

YCAGHSLEYMQKCL [Phage-937]: in assay [1], the “Anti-CD28 Fab signal in the presence of CD28 (phage binding ELISA)” value amounted to 0.07. Further, the “Anti-CD28 Fab signal (phage binding ELISA)” value in assay [2] is 1.63.

B7: Phage-928 (Peptide-87 library clone, SEQ ID NO: 1244) (peptide)
peptide: YCDGHSAEYLLKCL
modifications: cysteine pairing not given here; also: displayed fused to phage pIII protein, fusion end and linker not given here
notes: as for B1
Take B7: the “Anti-CD28 Fab signal in the presence of CD28 (phage binding ELISA)” value in assay [5] stood at 0.07. The “Anti-CD28 Fab signal (phage binding ELISA)” value in assay [6] came to 1.65.

With YCEGHSAQYMHKCL [Phage-931], the “Anti-CD28 Fab signal in the presence of CD28 (phage binding ELISA)” value in assay [1] came to 0.06. Also, the “Anti-CD28 Fab signal (phage binding ELISA)” value in assay [2] came out at 1.64.

Regarding YCDGHLSEYMSKCL [Phage-948], the “Phage binding ELISA, Anti-CD28 Fab signal in the presence of CD28” value in assay [3] came to 0.06. The “Phage binding ELISA, Anti-CD28 Fab signal” value in assay [4] came to 1.62.

B8: Phage-921 (Peptide-87 library clone, SEQ ID NO: 1237) (peptide)
peptide: YCDGHSEVYMAKCL
modifications: cysteine pairing not given here; also: fused to phage pIII
notes: as for B1
Consider B8, for which the “Anti-CD28 Fab signal in the presence of CD28 (phage binding ELISA)” value in assay [5] is 0.06. The “Anti-CD28 Fab signal (phage binding ELISA)” value in assay [6] was found to be 1.66.

B9: Phage-929 (Peptide-87 library clone, SEQ ID NO: 1245) (peptide)
peptide: YCDGHGPQYIQKCL
modifications: cysteine pairing not given here; also: displayed fused to phage pIII protein, fusion end and linker not given here
notes: as for B1
Take B9: the “Anti-CD28 Fab signal in the presence of CD28 (phage binding ELISA)” value in assay [5] stood at 0.07. Moreover, the “Anti-CD28 Fab signal (phage binding ELISA)” value in assay [6] was 1.64.

With YCEGHMWEYMAKCL [Phage-935], the “Anti-CD28 Fab signal in the presence of CD28 (phage binding ELISA)” value in assay [1] turned out to be 0.13. For the same molecule, the “Anti-CD28 Fab signal (phage binding ELISA)” value in assay [2] came out at 1.64.

For YCDGHELKYMLKCL [Phage-952], the “Phage binding ELISA, Anti-CD28 Fab signal in the presence of CD28” value in assay [3] was 0.08. The “Phage binding ELISA, Anti-CD28 Fab signal” value in assay [4] was 1.62.

YCEGHVTEYMQKCL [Phage-949]: the “Phage binding ELISA, Anti-CD28 Fab signal in the presence of CD28” value in assay [3] was found to be 0.08. For the same molecule, in assay [4], the “Phage binding ELISA, Anti-CD28 Fab signal” value was 1.62.

B10: Phage-927 (Peptide-87 library clone, SEQ ID NO: 1243) (peptide)
peptide: YCDGHAQEYRLKCL
modifications: cysteine pairing not given here; also: displayed fused to phage pIII protein, fusion end and linker not given here
notes: as for B1
For B10, the “Anti-CD28 Fab signal in the presence of CD28 (phage binding ELISA)” value in assay [5] came out at 0.07. In addition, the “Anti-CD28 Fab signal (phage binding ELISA)” value in assay [6] is 1.65.

On to YCEGHTAEHMQKCL [Phage-932], for which the “Anti-CD28 Fab signal in the presence of CD28 (phage binding ELISA)” value in assay [1] was determined as 0.05. In assay [2], the “Anti-CD28 Fab signal (phage binding ELISA)” value amounted to 1.64.

On to YCEGHSSEYMWKCL [Phage-940], for which, in assay [1], the “Anti-CD28 Fab signal in the presence of CD28 (phage binding ELISA)” value turned out to be 0.09. Besides, the “Anti-CD28 Fab signal (phage binding ELISA)” value in assay [2] stood at 1.63.

Turning to YCDGHDVEYMSKCL [Phage-936], the “Anti-CD28 Fab signal in the presence of CD28 (phage binding ELISA)” value in assay [1] was 0.05. In addition, the “Anti-CD28 Fab signal (phage binding ELISA)” value in assay [2] was found to be 1.64.

YCEGHDLIYMWKCL [Phage-938]: the “Anti-CD28 Fab signal in the presence of CD28 (phage binding ELISA)” value in assay [1] came to 0.06. The “Anti-CD28 Fab signal (phage binding ELISA)” value in assay [2] is 1.63.

With YCDGHAQEYMDKCL [Phage-950], the “Phage binding ELISA, Anti-CD28 Fab signal in the presence of CD28” value in assay [3] is 0.08. The “Phage binding ELISA, Anti-CD28 Fab signal” value in assay [4] came to 1.62.

For YCDGHSLEYIGKCL [Phage-944], the “Phage binding ELISA, Anti-CD28 Fab signal in the presence of CD28” value in assay [3] came out at 0.06. The “Phage binding ELISA, Anti-CD28 Fab signal” value in assay [4] was 1.63.
